Experimental data from patent US11654198B2, “Application of combination of polyethylene glycol and local anesthetic in non-narcotic analgesia” (JENKEM TECHNOLOGY CO., LTD. (TIANJIN), priority 2016, dated 2023).

How the values were obtained:
[1] = test system: SD rats; experiment: Sensory block, hot plate paw withdrawal time, non-anesthetic analgesic effect of PEG-bupivacaine conjugate (Example 30); assay type: in vivo, rat; conditions: for hot plate paw withdrawal time: conjugate 10/11/12 at 32/24/48 mg/kg (as bupivacaine); for time the analgesic effect could reach: conjugate 10 at 32 mg/kg, conjugate 11 at 24 mg/kg; for time after administration at which hot plate paw withdrawal time is significantly higher than vehicle group: conjugate 10/11/12 at 32/24/48 mg/kg, direct injection
Protocol: (§1) Male Sprague-Dawley rats are used in the study, about 230-250 g when accepted, and acclimated for at least 7 days prior to the experiment. Two rats are raised in each cage and fed freely with feed and water. The environmental conditions of the breeding room are 23±2° C., and the relative humidity is 40% to 70%, alternating 12 hours of light and dark. […] The qualified rats are randomly divided into 4 groups, 4 rats in each group, which are labeled as groups G1, G2, G3, and G4, respectively. Administration by direct injection in the sciatic nerve is adopted, and with the rat's back facing up, the drug is injected around the right sciatic nerve trunk between the right hip and the right thigh.
Sensory block (hot plate paw withdrawal time): The sensory block of the rat is examined by a hot plate method, and the hot plate is heated to (56±1)° C., and one of the hind paws of the rat is placed on the hot plate. The other hind paw is in the laboratory room temperature condition, and the tested paw withdrawal time is observed and recorded. The average value of two to three times measured is recorded as a pain threshold. In order to avoid the damage of the experimental animal body, if the rat has no paw withdrawal in the hot plate experiment for more than 15 s, the rat should be removed from the hot plate, and the experimental result is recorded as 15 s. The time point for determining the paw withdrawal time of the hot plate is before administration, and 0.5 h, 1 h, 2 h, 4 h, 6 h, 8 h, 10 h, 12 h, and 24 h after administration.

[2] = test system: SD rats; experiment: Motor block four-level score (Example 30); assay type: in vivo, rat; design: key to motor function score: 1 = normal motor function to 4 = complete loss with gait defect; conditions: for motor function score: direct injection around sciatic nerve, conjugate 10/11/12 at 32/24/48 mg/kg (as bupivacaine); for effect on motor function of SD rats: conjugate 10 at 32 mg/kg, conjugate 11 at 24 mg/kg; for motor scores at different time points versus vehicle group: direct injection, conjugate 10/11/12 at 32/24/48 mg/kg
Protocol: as §1
Motor block (four-level score): The exercise condition of each group of rats is evaluated by the motor block four-level scoring method. The scoring criteria are: paws can be dorsiflexed, stretched, valgus and other normal exercises, scored by 1 point; paws can be dorsiflexed, bendable or after the adduction, although the paws can be stretched after the adduction, the stretching ability is weakened, scored by 2 points; the paw can perform dorsiflexion, but no longer has the ability to stretch, scored by 3 points; the paws completely lose the ability of dorsiflexion, curling and stretching, and the rats produce a gait defect, scored by 4 points. The time point for measuring the motor block score is before administration, and 0.5 h, 1 h, 2 h, 4 h, 6 h, 8 h, 12 h, and 24 h after administration.

[3] = test system: SD rats; experiment: Motor block four-level score, rat sciatica model (SNL) (Example 32); assay type: in vivo; design: key to motor function score: 1 = normal paw movement to 4 = complete loss, gait defect; conditions: for motor function score: bupivacaine 8, conjugate 10/11/12 32/24/48 mg/kg; for effect on motor function of SD rats: conjugate 10/11/12 at 32/24/48 mg/kg
Text: Intervertebral disc compression (SNL): This model is a pathological form that simulates clinical disc herniation. The specific method is to remove the autogenous caudal intervertebral disc tissue (annulus fibrosus and nucleus pulposus) form the rats and place the caudal intervertebral disc tissue between the proximal nerve root of the L5 dorsal root ganglion and the lower vertebral body to directly compress the L5 nerve root, wherein damage to the L5 nerve root or dorsal root ganglion should be avoided during the operation. 3 to 15 days after the model is successful, rats develop significant hyperalgesia, so the administration time we chose is between 3 days and 15 days.
Qualified rats are randomly divided into 5 groups, 6 rats in each group, which are labeled as groups G1, G2, G3, G4 and G5, respectively. Administration by intramuscular injection around sciatic nerve is adopted, and the grouping information of the experimental animals is shown in Table 11.
Motor block (four-level score): The exercise condition of each group of rats is evaluated by the motor block four-level scoring method. The scoring criteria are: paws can be dorsiflexed, stretched, valgus and other normal exercises, scored by 1 point; paws can be dorsiflexed, bendable or after the adduction, although the paws can be stretched, the stretching ability is weakened, scored by 2 points; the paw can perform dorsiflexion, but no longer has the ability to stretch, scored by 3 points; the paw completely loses the ability of dorsiflexion, curling and stretching, and the rats produce a gait defect, scored by 4 points. The time point for determining the withdrawal time of the hot plate is before administration, and 0.5 h, 1 h, 2 h, 4 h, 6 h, 8 h, 12 h, and 24 h after administration.

[4] = 0.5 h after direct injection around sciatic nerve
[5] = 2 h after direct injection around sciatic nerve
[6] = 4 h after direct injection around sciatic nerve
[7] = 6 h after direct injection around sciatic nerve
[8] = 8 h after direct injection around sciatic nerve
[9] = 10 h after direct injection around sciatic nerve
[10] = 12 h after direct injection around sciatic nerve
[11] = 24 h after direct injection around sciatic nerve
[12] = l h after direct injection around sciatic nerve

Compound	hot plate paw withdrawal time [1, 4] [s]	hot plate paw withdrawal time [1, 5] [s]	hot plate paw withdrawal time [1, 6] [s]	hot plate paw withdrawal time [1, 7] [s]	hot plate paw withdrawal time [1, 8] [s]	hot plate paw withdrawal time [1, 9] [s]	hot plate paw withdrawal time [1, 10] [s]	hot plate paw withdrawal time [1, 11] [s]	hot plate paw withdrawal time [1, 12] [s]	motor function score ([2]; 0 h (before administration))	motor function score ([2]; 0.5 h)	motor function score ([2]; 1 h)	motor function score ([3]; 0.5 h)	motor function score ([3]; 1 h)	motor function score ([3]; 2 h)	motor function score ([3]; 4 h)	motor function score ([3]; 6 h)	motor function score ([3]; 8 h)	motor function score ([3]; 12 h)	motor function score ([3]; 24 h)	further results
8-Arm-PEG-Bupivacaine, 20K [bupivacaine conjugate 10]	11.85	8.91	10.74	11.92	8.49	6.64	3.82	3.81	11.98	1 ± 0	1 ± 0	1.75 ± 0.5	1 ± 0	1.75 ± 0.5	1.75 ± 0.5	1.75 ± 0.5	1.75 ± 0.5	1.75 ± 0.5	1 ± 0	1 ± 0	time the analgesic effect could reach [1]: 8 h; motor function score ([2]; 2 h): 1.75 ± 0.5; motor function score ([2]; 4 h): 1.75 ± 0.5; motor function score ([2]; 6 h): 1.75 ± 0.5; motor function score ([2]; 8 h): 1.75 ± 0.5; motor function score ([2]; 12 h): 1 ± 0; motor function score ([2]; 24 h): 1 ± 0; effect on motor function of SD rats [2]: does not affect the motor function; motor scores at different time points versus vehicle group [2]: not significantly different; effect on motor function of SD rats [3]: does not affect the motor function
8-Arm-PEG-Bupivacaine, 20K [bupivacaine conjugate 11]	9.60	5.02	6.65	6.44	3.69	3.24	2.62	3.77	9.99	1 ± 0	1 ± 0	1 ± 0	1 ± 0	1 ± 0	1 ± 0	1 ± 0	1 ± 0	1 ± 0	1 ± 0	1 ± 0	time after administration at which hot plate paw withdrawal time is significantly higher than vehicle group [1]: ≤ 6 h; time the analgesic effect could reach [1]: 6 h; motor function score ([2]; 2 h): 1 ± 0; motor function score ([2]; 4 h): 1 ± 0; motor function score ([2]; 6 h): 1 ± 0; motor function score ([2]; 8 h): 1 ± 0; motor function score ([2]; 12 h): 1 ± 0; motor function score ([2]; 24 h): 1 ± 0; effect on motor function of SD rats [2]: does not affect the motor function; motor scores at different time points versus vehicle group [2]: not significantly different; effect on motor function of SD rats [3]: does not affect the motor function
8-Arm-PEG-Bupivacaine, 20K [bupivacaine conjugate 12]	6.49	3.52	4.82	4.59	4.34	4.30	2.80	3.25	6.77	1 ± 0	1 ± 0	1 ± 0	1 ± 0	1 ± 0	1 ± 0	1 ± 0	1 ± 0	1 ± 0	1 ± 0	1 ± 0	time after administration at which hot plate paw withdrawal time is significantly higher than vehicle group [1]: ≤ 2 h; motor function score ([2]; 2 h): 1 ± 0; motor function score ([2]; 4 h): 1 ± 0; motor function score ([2]; 6 h): 1 ± 0; motor function score ([2]; 8 h): 1 ± 0; motor function score ([2]; 12 h): 1 ± 0; motor function score ([2]; 24 h): 1 ± 0; motor scores at different time points versus vehicle group [2]: not significantly different; effect on motor function of SD rats [3]: does not affect the motor function
CCCCN1CCCCC1C(=O)Nc1c(C)cccc1C (centres unmarked) [bupivacaine]	–	–	–	–	–	–	–	–	–	–	–	–	1 ± 0	1.75 ± 0.5	1.75 ± 0.5	1.75 ± 0.5	1.75 ± 0.5	1.75 ± 0.5	1 ± 0	1 ± 0	–
